Measured values published in patent publication US20220204611A1 (Amgen, published 2022).

T1: recombinant soluble human TREM2 protein (human TREM2 ECD-FlagHis) (human, UniProt Q9NZC2 19-174)
T1 sequence: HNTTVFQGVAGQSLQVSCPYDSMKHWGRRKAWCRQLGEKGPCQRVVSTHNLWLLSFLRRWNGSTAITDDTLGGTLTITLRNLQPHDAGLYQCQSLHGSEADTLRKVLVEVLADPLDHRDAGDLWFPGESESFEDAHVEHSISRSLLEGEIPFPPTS

T2: human TREM2 on cells (human, UniProt Q9NZC2 19-230)
T2 sequence: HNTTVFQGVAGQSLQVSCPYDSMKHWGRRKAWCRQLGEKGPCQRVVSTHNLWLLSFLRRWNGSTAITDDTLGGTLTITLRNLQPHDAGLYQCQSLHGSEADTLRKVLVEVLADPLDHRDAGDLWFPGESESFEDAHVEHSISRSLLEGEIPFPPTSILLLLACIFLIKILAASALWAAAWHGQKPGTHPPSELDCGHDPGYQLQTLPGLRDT

T3: soluble human TREM2 protein (TREM2 ECD-huIgG1 Fc fusion protein) (human, UniProt Q9NZC2 19-174, biotinylated)
T3 construct: also called biotinylated soluble human TREM2 protein
T3 sequence: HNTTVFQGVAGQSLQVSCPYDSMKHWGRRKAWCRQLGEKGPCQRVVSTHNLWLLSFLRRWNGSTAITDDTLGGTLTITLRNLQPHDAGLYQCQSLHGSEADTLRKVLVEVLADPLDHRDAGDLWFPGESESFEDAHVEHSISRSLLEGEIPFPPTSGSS

T4: human TREM2 (human, UniProt Q9NZC2 19-174, limits assumed)
T4 sequence: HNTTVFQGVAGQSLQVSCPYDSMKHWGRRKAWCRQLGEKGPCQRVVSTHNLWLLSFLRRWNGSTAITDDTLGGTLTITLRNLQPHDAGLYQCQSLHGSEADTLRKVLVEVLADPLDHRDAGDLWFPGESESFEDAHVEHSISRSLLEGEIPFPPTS


Columns and labels:
[1] = target: T1, recombinant soluble human TREM2 protein …; test: Octet BLI binning; competitor: load Ab 32E3
Procedure: (§1) Each of sixteen different anti-TREM2 antibodies produced from hybridomas were quantitated and loaded onto one of the anti-human Fc sensors at 5 μg/mL for 2 minutes (“Load Antibody”). The sensor was then blocked with 100 μg/mL of an irrelevant human IgG2 antibody for 5 minutes. […] Next, each of the sixteen different anti-TREM2 antibodies (“Sandwich Antibody”) was added to the sensor at 5 μg/mL and allowed to bind for 5 minutes. All assay buffers contained 10 mM Tris (pH 7.6), 0.1% Triton X-100, 150 mM NaCl, 1 mM CaCl₂, and 1 mg/mL BSA. The assay was conducted at 25° C. Experimental kinetic results were fit to a 1:1 binding model.
(§2) However, if addition of the sandwich antibody produces a binding event, then the sandwich antibody binds to a different epitope on human TREM2 than the load antibody and the two antibodies are categorized into different epitope bins.

[2] = target: T1, recombinant soluble human TREM2 protein …; test: Octet BLI binning; competitor: load Ab 10E3
Procedure: as §1, §2

human TREM2 on cells [3] = target: T2, human TREM2 on cells; test: cell-based or functional assay
[4] = target: T1, recombinant soluble human TREM2 protein …; test: Octet BLI binning; competitor: load Ab 26A10
Procedure: as §1, §2

[5] = target: T3, soluble human TREM2 protein (TREM2 …); test: ELISA, hybridoma supernatant on captured biotinylated TREM2 ECD-Fc
Procedure: Exhausted hybridoma supernatants were tested for binding to human TREM2 by ELISA. Briefly, neutravidin plates were generated by incubating a 384 well Corning Assay Plate 3702 with neutravidin (Thermo 3100B) at 10 μg/mL (40 μL/well) in 1× PBS at 4° C. overnight. The plates were washed with 1× PBS using a Biotek plate washer and then blocked with 1% milk/1× PBS (90 μL/well) at room temperature (RT) for 30 minutes. The plates were then washed again with 1× PBS using the plate washer. […] The plates were then incubated at RT for 1 hour to immobilize the TREM2 protein to the wells of the plates. Following the incubation, the plates were again washed with 1× PBS using the plate washer. 10 μL of each hybridoma supernatant to be tested and 40 μL of 1% milk/1× PBS (1:5 dilution) were added to each well of the plates and incubated at RT for 1 hour. Again, the plates were washed with 1× PBS using the plate washer. […] After the plates were washed with 1× PBS using the plate washer, 40 μL/well of TMB substrate (Neogen, lot #150114) was added to the plates and the plates were incubated at RT for 30 minutes. The reaction was quenched with 1N hydrochloric acid (40 uL/well) following the incubation period. OD readings at 450 nm were obtained with a plate reader.

[6] = target: T1, recombinant soluble human TREM2 protein …; test: Octet BLI binning; competitor: load Ab 13E7
Procedure: as §1, §2

[7] = target: T1, recombinant soluble human TREM2 protein …; test: Octet BLI binning; competitor: load Ab 6E7
Procedure: as §1, §2

[8] = target: T1, recombinant soluble human TREM2 protein …; test: Octet BLI binning; competitor: load Ab 16B8
Procedure: as §1, §2

[9] = target: T1, recombinant soluble human TREM2 protein …; test: Octet BLI binning; competitor: load Ab 25F12
Procedure: as §1, §2

human TREM2 on cells [10] = target: T2, human TREM2 on cells; test: cell-based or functional assay; remark: listed apart in the source
[11] = target: T1, recombinant soluble human TREM2 protein …; test: Octet BLI binning; competitor: load Ab 24F4
Procedure: as §1, §2

[12] = target: T1, recombinant soluble human TREM2 protein …; test: Octet BLI binning; competitor: load Ab 24A10
Procedure: as §1, §2

[13] = target: T1, recombinant soluble human TREM2 protein …; test: Octet BLI binning; competitor: load Ab 24G6
Procedure: as §1, §2

[14] = target: T1, recombinant soluble human TREM2 protein …; test: Octet BLI binning; competitor: load Ab 26C10
Procedure: as §1, §2

[15] = target: T1, recombinant soluble human TREM2 protein …; test: Octet BLI binning; competitor: load Ab 26F2
Procedure: as §1, §2

[16] = target: T1, recombinant soluble human TREM2 protein …; test: Octet BLI binning; competitor: load Ab 5E3
Procedure: as §1, §2

[17] = target: T1, recombinant soluble human TREM2 protein …; test: Octet BLI binning; competitor: load Ab 33B12
Procedure: as §1, §2

human TREM2 [18] = target: T4, human TREM2; test: yeast-displayed Fab FACS, 2nd screen 2 nM
human TREM2 [19] = target: T4, human TREM2; test: yeast-displayed Fab FACS, 1st screen 10 nM
human TREM2 [20] = target: T4, human TREM2; test: yeast-displayed Fab FACS, 2nd screen 10 nM

| Binder | sandwich binding signal [1] | sandwich binding signal [2] | OD 450 [5] [OD450] | sandwich binding signal [6] | sandwich binding signal [7] | sandwich binding signal [8] | sandwich binding signal [9] | pSyk EC50 (human TREM2 on cells [10]) [nM] | sandwich binding signal [11] | sandwich binding signal [12] | sandwich binding signal [13] | sandwich binding signal [14] | sandwich binding signal [15] | sandwich binding signal [16] | binding signal fold over 6E7 parental (human TREM2 [18]) [fold] | binding signal fold over 6E7 parental (human TREM2 [19]) [fold] | binding signal fold over 6E7 parental (human TREM2 [20]) [fold] | further results |
| --- | --- | --- | --- | --- | --- | --- | --- | --- | --- | --- | --- | --- | --- | --- | --- | --- | --- | --- |
| 33B12 (antibody, V domains shown, human IgG2 from hybridoma) VH: EVQLVESGGALVQPGGSLRLSCAASGFTFSSFGMSWVRQAPGKGLEWVSYISKSSFTIYYADSVKGRFTISRDNAKNSFYLQMNSLRDEDTAVYYCAREGGLTMVRGVSSYGLDVWGQGTTVTVSS VL: not shown | 0.384 | 0.271 | 1.34 | 0.287 | 0.52 | -0.017 | 0.345 | 1 | 0.454 | 0.47 | 0.388 | -0.009 | 0.002 | -0.015 | – | – | – | Emax (% maximum activation compared to RnD antibody) (human TREM2 on cells [3]): 246%; pSyk EC50, differentiated THP-1 cells (human TREM2 on cells [3]): 2.85 nM; sandwich binding signal [4]: 0.023 |
| 26C10 (antibody, human IgG2, V domains shown, human IgG2 from hybridoma) VH: EVQLVESGGALVQPGGSLRLSCAASGFTFSSFGMSWVRQAPGKGLEWVSYISSSSFTIYYADSVKGRFTISRDNAKNSFYLQMNSLRDEDTAVYFCVREGGITMVRGVSSYGMDVWGQGTTVTVSS VL: SFELTQPPSVSVSPGQTASITCSGDKLGDKYVCWYQQKPGQSPMLVIYQDTKRPSGIPERFSGSNSGNTATLTISGTQAMDEADYYCQAWDSSTVVFGGGTKLTVL | 0.419 | 0.285 | 1.59 | 0.323 | 0.594 | -0.031 | 0.418 | 2.2 | 0.552 | 0.541 | 0.384 | -0.032 | -0.015 | -0.042 | – | – | – | sandwich binding signal [17]: -0.033 |
| V87 (Fab, V domains shown) VH: EVQLVQSGAEVKKPGESLKISCKGSGYSFRSYWIAWVRQMPGKGLEWMGIIYPGDSDVRYSPDFQGQVTISADKSISTAYLQWSSLKASDTAMYFCARSRTFYYDSSDYFDYWGQGTLVTVSS VL: DIQMTQSPSSVSASVGDRVTITCRASQGISSWLAWYQQKPGKAPKLLIYAASSLQWGVPSRFSGSGSGTDFTLTISSLQPEDFATYFCQQADSFPRTFGQGTKLEIK | – | – | – | – | – | – | – | – | – | – | – | – | – | – | 4.86 | 3.84 | 3.93 | – |
| 24F4 (antibody, human IgG2, V domains shown, human IgG2 from hybridoma) VH: EVQLVQSGAEVKKPGESLKISCKGSGYTFTSYWIGWVRQMPGKGLEWMGIIYPGDSDTRYSPSFQGQVTISVDKSSSTAYLQWSSLKASDTAIYYCTRQAIAVTGLGGFDPWGQGTLVTVSS VL: EIVLTQSPGTLSLSPGERATLSCRASQSVSSSYLAWYQQKPGQAPRLLIYGASSRATGIPDRFSGSGSGTDFTLTISRLEPEDFALYYCQQYDTSPFTFGPGTKVDIK | -0.001 | -0.032 | – | -0.015 | -0.039 | 0.27 | 0.244 | 2.4 | 0.038 | 0.335 | 0.251 | 0.346 | 0.282 | 0.311 | – | – | – | sandwich binding signal [17]: 0.25; sandwich binding signal [4]: 0.319 |

More lines, main results first:

| sandwich binding signal [1] | sandwich binding signal [2] | OD 450 [5] [OD450] | sandwich binding signal [6] | sandwich binding signal [7] | sandwich binding signal [8] | sandwich binding signal [9] | pSyk EC50 (human TREM2 on cells [10]) [nM] | sandwich binding signal [11] | sandwich binding signal [12] | sandwich binding signal [13] | sandwich binding signal [14] | sandwich binding signal [15] | sandwich binding signal [16] | binding signal fold over 6E7 parental (human TREM2 [18]) [fold] | binding signal fold over 6E7 parental (human TREM2 [19]) [fold] | binding signal fold over 6E7 parental (human TREM2 [20]) [fold] | Binder | further results |
| --- | --- | --- | --- | --- | --- | --- | --- | --- | --- | --- | --- | --- | --- | --- | --- | --- | --- | --- |
| – | – | – | – | – | – | – | 0.4 | – | – | – | – | – | – | – | – | – | 12G10 (antibody, human IgG2, V domains shown) VH: EVQLLESGGGLVQPGGSLRLSCAASGFTFSSYAMSWVRQAPGKGLEWVSAIGGGGVSTYCADSVKGRFTISRDNSKNTLYLQMNSLRAEDTAVYYCAKFYIAVAGSHFDYWGQGTLVTVSS VL: QAVPTQPSSLSASPGVLASLTCTLRSGINVGTYRIYWYQQKPGSPPQYLLRYKSDSDKQQGSGVPSRFSGSKDASANAGILLISGLQSEDEADYYCMIWYSSAVVFGGGTKLTVL | – |
| – | – | – | – | – | – | – | – | – | – | – | – | – | – | 0.94 | 1.33 | 1.46 | V89 (Fab, V domains shown) VH: EVQLVQSGAEVKKPGESLKISCKGSGYSFTSYWIAWVRQMPGKGLEWMGIIYPGDSDTRYSPSFQGQVTISADKSISTAYLQWSSLKASDTAMYFCARQRTFYYDSSDYFDYWGQGTLVTVSS VL: DIQMTQSPSSVSASVGDRVTITCRASQGISSWLAWYQQKPGKAPKLLIYAASSLQNGVPSRFSGSGSGTDFTLTISSLQPEDFATYFCQQADSHPRTFGQGTKLEIK | – |
| – | – | – | – | – | – | – | – | – | – | – | – | – | – | 5.57 | 4.92 | 5.3 | V88 (Fab, V domains shown) VH: EVQLVQSGAEVKKPGESLKISCKGSGYSFGSYWIAWVRQMPGKGLEWMGIIYPGDSDTRYSPSFQGQVTISADKSISTAYLQWSSLKASDTAMYFCARQRTFYYDSSDYFDYWGQGTLVTVSS VL: DIQMTQSPSSVSASVGDRVTITCRASQGISSWLAWYQQKPGKAPKLLIYAASRLQRGVPSRFSGSGSGTDFTLTISSLQPEDFATYFCQQADSSPRTFGQGTKLEIK | – |
| – | – | 0.71 | – | – | – | – | 0.4 | – | – | – | – | – | – | – | – | – | 14C12 (antibody, human IgG2, V domains shown, human IgG2 from hybridoma) VH: EVQLVQSGAEVKKPGESLMISCKGSGYSFTSYWIGWVRQMPGKGLEWMGIIYPGDSDTRYSPSFQGQVTISADKSISTAYLQWSSLKASDTAMYFCARRRQGIWGDALDFWGQGTLVTVSS VL: EIVMTQSPATLSVSPGERATLSCRASQSVSSNLAWFQQKPGQAPRLLIYGASTRATGIPARFSVSGSGTEFTLTISSLQSEDFAVYYCLQDNNWPPTFGPGTKVDIK | – |
